Patent US20250017962A1 (US Dept. of Health and Human Services, published 2025)

Key:
[1] = molecular target: glypican-3 (GPC3) on HCC cell lines Hep3B, Huh7 and HepG2 (human, UniProt P51654 25-580); assay: cell-based or functional assay
GPC1-hFc = molecular target: T1, GPC1-hFc (UniProt P35052 24-530, limits assumed); assay: flow cytometry, hFc-tagged protein on CAR-expressing Jurkat cells
T1 construct: not shown: human Fc tag (hFc)
T1 sequence (looked up): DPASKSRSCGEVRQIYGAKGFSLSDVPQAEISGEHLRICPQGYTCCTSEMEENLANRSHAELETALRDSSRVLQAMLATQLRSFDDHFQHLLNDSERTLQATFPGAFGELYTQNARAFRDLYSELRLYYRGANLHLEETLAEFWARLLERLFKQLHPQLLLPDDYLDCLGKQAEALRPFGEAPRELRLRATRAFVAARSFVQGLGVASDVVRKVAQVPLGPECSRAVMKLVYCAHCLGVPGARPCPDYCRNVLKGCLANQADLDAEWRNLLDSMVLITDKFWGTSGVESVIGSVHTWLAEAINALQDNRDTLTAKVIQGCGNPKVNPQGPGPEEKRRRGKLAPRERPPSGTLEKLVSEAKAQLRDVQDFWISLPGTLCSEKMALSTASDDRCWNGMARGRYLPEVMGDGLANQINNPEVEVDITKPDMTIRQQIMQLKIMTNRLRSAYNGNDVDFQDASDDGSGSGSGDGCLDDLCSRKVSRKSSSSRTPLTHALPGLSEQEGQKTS
Experimental: To test antigen specificity and cell binding capacity of the engineered GPC3-targeted CARs, T cell lines (Jurkat) transfected with the CAR constructs were developed and binding to GPC3 tagged with human Fc (GPC3-hFc) was assessed. First, successful transduction (95-98%) of all of the CAR constructs was confirmed using the truncated EGFR marker expressed by the CAR lentivirus. […] All CAR T cells specifically bound to GPC3-hFc (FIG. 1A) and not GPC1-hFc (FIG. 1B) at the same concentrations.

glypican-3 (GPC3) on HCC cell lines Hep3B, Huh7 and HepG2, sequence (P51654 25-580): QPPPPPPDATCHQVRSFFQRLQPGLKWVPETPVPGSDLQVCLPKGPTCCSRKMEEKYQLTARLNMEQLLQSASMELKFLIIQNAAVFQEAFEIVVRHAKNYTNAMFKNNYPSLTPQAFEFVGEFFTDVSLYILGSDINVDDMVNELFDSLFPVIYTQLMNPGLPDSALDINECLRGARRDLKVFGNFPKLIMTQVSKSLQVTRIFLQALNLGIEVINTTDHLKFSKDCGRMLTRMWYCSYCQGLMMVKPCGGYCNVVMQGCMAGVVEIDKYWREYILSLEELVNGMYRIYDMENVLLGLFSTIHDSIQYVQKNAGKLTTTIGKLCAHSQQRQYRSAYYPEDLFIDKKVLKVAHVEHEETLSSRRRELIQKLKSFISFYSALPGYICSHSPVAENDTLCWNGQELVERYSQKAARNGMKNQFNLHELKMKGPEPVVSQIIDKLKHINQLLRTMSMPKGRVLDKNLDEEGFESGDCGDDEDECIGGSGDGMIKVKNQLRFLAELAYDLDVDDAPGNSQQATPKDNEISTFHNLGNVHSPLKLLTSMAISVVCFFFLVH

B1: HN3-CD8H-CD28TM CAR (other)
chain: HMQVQLVQSGGGLVQPGGSLRLSCAASYFDFDSYEMSWVRQAPGKGLEWIGSIYHSGSTYYNPSLKSRVTISRDNSKNTLYLQMNTLRAEDTATYYCARVNMDRFDYWGQGTLVTVSSTSTTTPAPRPPTPAPTIASQPLSLRPEACRPAAGGAVHTRGLDFACDFWVLVVVGGVLACYSLLVTVAFIIFWVKRGRKKLLYIFKQPFMRPVQTTQEEDGCSCRFPEEEEGGCELRVKFSRSADAPAYQQGQNQLYNELNLGRREEYDVLDKRRGRDPEMGGKPRRKNPQEGLYNELQKDKMAEAYSEIGMKGERRRGKGHDGLYQGLSTATKDTYDALHMQALPPR
- killing relative to HN3-CD8H-CD8TM CAR T cells [1]: 40%
- binding result (GPC1-hFc): no binding (tested: 1, 2 and 5 µg/mL)

B2: hYP7-CD8H-CD8TM CAR (other)
chain: HMEVQLVESGGGLVQPGGSLRLSCAASGFTFNKNAMNWVRQAPGKGLEWVGRIRNKTNNYATYYADSVKARFTISRDDSKNSLYLQMNSLKTEDTAVYYCVAGNSFAYWGQGTLVTVSAGGGGSGGGGSGGGGSDIVMTQSPDSLAVSLGERATINCKSSQSLLYSSNQKNYLAWYQQKPGQPPKLLIYWASSRESGVPDRFSGSGSGTDFTLTISSLQAEDVAVYYCQQYYNYPLTFGQGTKLEIKTSTTTPAPRPPTPAPTIASQPLSLRPEACRPAAGGAVHTRGLDFACDIYIWAPLAGTCGVLLLSLVITKRGRKKLLYIFKQPFMRPVQTTQEEDGCSCRFPEEEEGGCELRVKFSRSADAPAYQQGQNQLYNELNLGRREEYDVLDKRRGRDPEMGGKPRRKNPQEGLYNELQKDKMAEAYSEIGMKGERRRGKGHDGLYQGLSTATKDTYDALHMQALPPR
- binding result (GPC1-hFc): no binding (tested: 1, 2 and 5 µg/mL)

B3: HN3-IgG4H-CD28TM CAR (other)
chain: HMQVQLVQSGGGLVQPGGSLRLSCAASYFDFDSYEMSWVRQAPGKGLEWIGSIYHSGSTYYNPSLKSRVTISRDNSKNTLYLQMNTLRAEDTATYYCARVNMDRFDYWGQGTLVTVSSTSESKYGPPCPPCPFWVLVVVGGVLACYSLLVTVAFIIFWVKRGRKKLLYIFKQPFMRPVQTTQEEDGCSCRFPEEEEGGCELRVKFSRSADAPAYQQGQNQLYNELNLGRREEYDVLDKRRGRDPEMGGKPRRKNPQEGLYNELQKDKMAEAYSEIGMKGERRRGKGHDGLYQGLSTATKDTYDALHMQALPPR
notes: also called HN3-IgG4-CD28TM; HN3-IgGH-CD28TM
- potency (killing) relative to HN3-CD8H-CD28TM [1]: 10 to 20%
- binding result (GPC1-hFc): no binding (tested: 1, 2 and 5 µg/mL)

B4: HN3-IgG4H-CD8TM CAR (other)
chain: HMQVQLVQSGGGLVQPGGSLRLSCAASYFDFDSYEMSWVRQAPGKGLEWIGSIYHSGSTYYNPSLKSRVTISRDNSKNTLYLQMNTLRAEDTATYYCARVNMDRFDYWGQGTLVTVSSTSESKYGPPCPPCPIYIWAPLAGTCGVLLLSLVITKRGRKKLLYIFKQPFMRPVQTTQEEDGCSCRFPEEEEGGCELRVKFSRSADAPAYQQGQNQLYNELNLGRREEYDVLDKRRGRDPEMGGKPRRKNPQEGLYNELQKDKMAEAYSEIGMKGERRRGKGHDGLYQGLSTATKDTYDALHMQALPPR
- binding result (GPC1-hFc): no binding (tested: 1, 2 and 5 µg/mL)
